The record followed here is article PMC3285688, “Active Site Mutations Change the Cleavage Specificity of Neprilysin” (PLoS ONE, 2012).

A short description of this data set: Hydrolysis of synthetic substrate Glut-Ala-Ala-Phe-MNA by NEP and mutants (fluorogenic). It is filed as biochemical. Conditions: for Km: Glut-Ala-Ala-Phe-MNA 20 to 500 µM, 37°C, 20 mM MES buffer, pH 6.5, Michaelis-Menten fit. Here is the method: Reactions of 400 µl contained 100 µM Glut-Ala-Ala-Phe-MNA, 1 µg of aminopeptidase and 15 to 100 ng of NEP or mutant NEP depending on their activity in 20 mM MES buffer, pH 6.5. Activity was monitored with a Spectra Max Gemini XS plate reader using an excitation wavelength of 340 nm and an emission wavelength of 425 nm.
Kinetic constants for NEP and its mutants were obtained using the assay conditions noted above, but with Glut-Ala-Ala-Phe-MNA varied from 20 to 500 µM. Typically 12 data points were obtained. The data were fit to the Michaelis-Menten equation using Prism4 software. The Ki for insulin B chain was obtained by measuring the rate of Glut-Ala-Ala-Phe-MNA hydrolysis in the presence of varying concentrations of insulin B chain from 1 to 40 µM. Data were fit to a Dixon plot (1/rate versus [insulin B chain]) using Prism4 software and the ID50 obtained as the –x intercept, where ID50 corresponds to the concentration of insulin producing 50% inhibition. The actual Ki was obtained from the equation: ID50 = Ki (1+ [Glut-Ala-Ala-Phe-MNA]/KmGlut-Ala-Ala-Phe-MNA), [33].

B1: NEP^F563K: neprilysin active site mutant, Phe563 to lysine (low expressing) (protein, UniProt P08473 2-750, looked up, variant F563K)
Neprilysin: GKSESQMDITDINTPKPKKKQRWTPLEISLSVLVLLLTIIAVTMIALYATYDDGICKSSDCIKSAARLIQNMDATTEPCTDFFKYACGGWLKRNVIPETSSRYGNFDILRDELEVVLKDVLQEPKTEDIVAVQKAKALYRSCINESAIDSRGGEPLLKLLPDIYGWPVATENWEQKYGASWTAEKAIAQLNSKYGKKVLINLFVGTDDKNSVNHVIHIDQPRLGLPSRDYYECTGIYKEACTAYVDFMISVARLIRQEERLPIDENQLALEMNKVMELEKEIANATAKPEDRNDPMLLYNKMTLAQIQNNFSLEINGKPFSWLNFTNEIMSTVNISITNEEDVVVYAPEYLTKLKPILTKYSARDLQNLMSWRFIMDLVSSLSRTYKESRNAFRKALYGTTSETATWRRCANYVNGNMENAVGRLYVEAAFAGESKHVVEDLIAQIREVFIQTLDDLTWMDAETKKRAEEKALAIKERIGYPDDIVSNDNKLNNEYLELNYKEDEYFENIIQNLKFSQSKQLKKLREKVDKDEWISGAAVVNAFYSSGRNQIVFPAGILQPPKFSAQQSNSLNYGGIGMVIGHEITHGFDDNGRNFNKDGDLVDWWTQQSASNFKEQSQCMVYQYGNFSWDLAGGQHLNGINTLGENIADNGGLGQAYRAYQNYIKKNGEEKLLPGLDLNHKQLFFLNFAQVWCGTYRPEYAVNSIKTDVHSPGNFRIIGTLQNSAEFSEAFHCRKNSYMNPEKKCRVW
As for B1, under “pH 6.5, 37°C”, the “Activity relative to wild-type enzyme (Glut-Ala-Ala-Phe-MNA)” value is less than 1%.

B2: NEP^S546A: neprilysin active site mutant, Ser546 to alanine (protein, UniProt P08473 2-750, looked up, variant S546A)
Neprilysin: GKSESQMDITDINTPKPKKKQRWTPLEISLSVLVLLLTIIAVTMIALYATYDDGICKSSDCIKSAARLIQNMDATTEPCTDFFKYACGGWLKRNVIPETSSRYGNFDILRDELEVVLKDVLQEPKTEDIVAVQKAKALYRSCINESAIDSRGGEPLLKLLPDIYGWPVATENWEQKYGASWTAEKAIAQLNSKYGKKVLINLFVGTDDKNSVNHVIHIDQPRLGLPSRDYYECTGIYKEACTAYVDFMISVARLIRQEERLPIDENQLALEMNKVMELEKEIANATAKPEDRNDPMLLYNKMTLAQIQNNFSLEINGKPFSWLNFTNEIMSTVNISITNEEDVVVYAPEYLTKLKPILTKYSARDLQNLMSWRFIMDLVSSLSRTYKESRNAFRKALYGTTSETATWRRCANYVNGNMENAVGRLYVEAAFAGESKHVVEDLIAQIREVFIQTLDDLTWMDAETKKRAEEKALAIKERIGYPDDIVSNDNKLNNEYLELNYKEDEYFENIIQNLKFSQSKQLKKLREKVDKDEWISGAAVVNAFYASGRNQIVFPAGILQPPFFSAQQSNSLNYGGIGMVIGHEITHGFDDNGRNFNKDGDLVDWWTQQSASNFKEQSQCMVYQYGNFSWDLAGGQHLNGINTLGENIADNGGLGQAYRAYQNYIKKNGEEKLLPGLDLNHKQLFFLNFAQVWCGTYRPEYAVNSIKTDVHSPGNFRIIGTLQNSAEFSEAFHCRKNSYMNPEKKCRVW
One may read the Km as the concentration of substrate that gives half-maximal velocity. For the molecule B2, the Michaelis-Menten constant (Km) turned out to be 118 ± 7 µM.

B3: NEP^S546T: neprilysin active site mutant, Ser546 to threonine (protein, UniProt P08473 2-750, looked up, variant S546T)
Neprilysin: GKSESQMDITDINTPKPKKKQRWTPLEISLSVLVLLLTIIAVTMIALYATYDDGICKSSDCIKSAARLIQNMDATTEPCTDFFKYACGGWLKRNVIPETSSRYGNFDILRDELEVVLKDVLQEPKTEDIVAVQKAKALYRSCINESAIDSRGGEPLLKLLPDIYGWPVATENWEQKYGASWTAEKAIAQLNSKYGKKVLINLFVGTDDKNSVNHVIHIDQPRLGLPSRDYYECTGIYKEACTAYVDFMISVARLIRQEERLPIDENQLALEMNKVMELEKEIANATAKPEDRNDPMLLYNKMTLAQIQNNFSLEINGKPFSWLNFTNEIMSTVNISITNEEDVVVYAPEYLTKLKPILTKYSARDLQNLMSWRFIMDLVSSLSRTYKESRNAFRKALYGTTSETATWRRCANYVNGNMENAVGRLYVEAAFAGESKHVVEDLIAQIREVFIQTLDDLTWMDAETKKRAEEKALAIKERIGYPDDIVSNDNKLNNEYLELNYKEDEYFENIIQNLKFSQSKQLKKLREKVDKDEWISGAAVVNAFYTSGRNQIVFPAGILQPPFFSAQQSNSLNYGGIGMVIGHEITHGFDDNGRNFNKDGDLVDWWTQQSASNFKEQSQCMVYQYGNFSWDLAGGQHLNGINTLGENIADNGGLGQAYRAYQNYIKKNGEEKLLPGLDLNHKQLFFLNFAQVWCGTYRPEYAVNSIKTDVHSPGNFRIIGTLQNSAEFSEAFHCRKNSYMNPEKKCRVW
Turning to B3, the Km worked out at 73 ± 6 µM.
